# Assay results: the DeepSol protein solubility set
# Assay: soluble on expression in E. coli; label from the status in PepcDB or PDB records
row,Sequence,soluble on expression in E. coli
1,MALIEYNPPLEPYLDIIYQDNHLCVVNKPSGLLSVPGNQPQYYDSAMSRVKEKFGFCEPAHRLDMATSGIIVFALSKAADRELKRQFREREPKKHYQAIVWGHLENDYGEVNLPMICDWENRPRQRLDFVLGKRAVTKFEVLARLPNNSTRVKLTPVTGRSHQLRLHMLALGHPILGDKFYSHPQAKVMSPRLCLHAEELTITHPITGETMTFNAKSDFLEHHHHHH,not soluble
2,TLIHIYDTSEPELDVQVTGYQWKWQYKYLGQDVEYFSNLATPQDQIHNRQAKDEHYLLEVDEPLVLPVGTKVRFLITSSDVIHSWWVPAFAVKRDAIPGFVNEAWTKVDEPGIYRGQCAELCGKDHGFMPIVVDVKPKAEFDQWLAKRKEEAAKVKELTSKEWTKEELVARGDKVYHTICAACHQAEGQGMPPMFPALKGSKIVTGPKEHHLEVVFNGVPGTAMAAFGKQLNEVDLAAVITYERNAWGNDDGDMVTPKDVVAYKQK,not soluble
3,MGSDKIHHHHHHMTSKIDGLSVSSGLHRRYWNGMVADLWSVDCQSDAGGQYVSSDPRLFILLDAAGEDGADLSMAEGGGKRISGAMARAAHFIPAGLELSTAITGVKSLRHLDLHFDADILRHRLGEDAGLAALHQPRYLLDDPRLLALAELIAADVANPHPLHDLYGDGLVSALLIDVLNIRPTPTHQLPNRKRSKLAAWQLRRVCDFIEAHCLRTIRLEELAGLAGLSPTYFSHAFKASTGLSPHQWQMKARIETVKQRLRDPAVPLTVIAAETGFADAAHFARSFRRAVGLSPSEWRRVRLN,not soluble
4,MSDLSSSLCQLNWLIAKGGLNTVQEIEVPENPNIVGSPVAPAHEGKRRRIFDGADKPPYSYSQLIRLAIEDTPDKKCTLAEIYSFIAHNFQFYRENRNSSWKNSIRHNLSLNKQFSRIEKTDGDRRGWWVCVDPPAKKPRILKGSPVRVNPIYEHLYHNKQDMPNFTPPPEDPFLSEINGNVHELTEHEIRDLNLFESYDLNSSFRDVYNQIFEKSTSPNGKKQAAQIDWLKISLEAAGLDYHDEQELQEVDTDKLKDYVYNGFPAECDSDVSTPRTDSGRHSSSDSVLSATLQPVNNDSDDEYDWDKLL,not soluble
5,MSLILLNTITDQVSVSETQTKSPRLWMPERVLFTPAALGEDWGQQILARVQSLNLPIEELSQNRLKGLRGESERDTYNIAKRTLAVVTAPPSSFKLSPIPPSADWQFHIAEGCPAHCQYCYLAGSLSGPPVIRVFANLPQILENLANYEQQGKTTTFEVSCYTDPLGIEHLTGSLAECIRYFGTRTNAHLRWVSKFDAVDGLLDLPHNGNTRCRMSVNAAPISGKFEGGTASVASRLNALRRLALPQERGGGGYPVGLVIAPIMPIDDWQMHYSRLFDQINEALDFDCNFTFELISHRFTPGSKEVLQAWYPQSKLEMDEAKRSVKRNKFGGTKYVYEKDTMKALRSFFESEISRRFPNAETLYWTEGHHHHHH,soluble
6,MVSAPASASSSPASSSFQSFFWQAAARPRAEPKRQALKRITLMTTDKTSPYEIHDDRFRHLIVGNAELEELYSGCRWAEGPVWFADLNCLLFSDIPNERMLRWVPDGGISVFRQPSNFTNGNTRDRQGRLVSCEHGGRRVTRTEVDGSITVLADSYGGKRLNSPNDVVVKSDGSVWFTDPTYGILSDYEGYKAEPEQKTRNVYRLDPATGKIDIAIDDFVQPNGLAFSPDETKLYVADSSYSHDISRPRHIRVFDVVDGVRLANGREFCNLDNGLPDGFRLDTAGNLWTSAGDGVHCFAPDGRLIGKIKVPQTVANLTFGGPKKNRLFITATKSLYSVYVAATGAQTPLEHHHHHH,soluble
7,PKIENPILIEGYPGIGLVGHIAANFLAKELKMEVIGYVESSFIPPMSLILEGKPNPPLRFYGKDNIIIAVADIYLPPTLINEIAKEIANYLEQNKAEKVISLGGMGIGIFKDKFEVWGVGGTEEENKELQDLGVKILEYGSISGMSGKLLWEASRRGLKSYVILGETFGDRPDPRAAANVVEVLDRMLTLNVSVEPLLKEAEMIEEQLRKMHEQMEKARRSVEKQYETMYL,not soluble
8,MRETHLRSILHTIPDAMIVIDGHGIIQLFSTAAERLFGWSELEAIGQNVNILMPEPDRSRHDSYISRYRTTSDPHIIGIGRIVTGKRRDGTTFPMHLSIGEMQSGGEPYFTGFVRDLTEHQQTQARLQELQ,soluble
9,MGSSHHHHHHSSGLVPRGSGDPDEQYDFLFKLVLVGDASVGKTCVVQRFKTGAFSERQGSTIGVDFTMKTLEIQGKRVKLQIWDTAGQERFRTITQSYYRSANGAILAYDITKRSSFLSVPHWIEDVRKYAGSNIVQLLIGNKSDLSELREVSLAEAQSLAEHYDILCAIETSAKDSSNVEEAFLRVATELIMRHGGPLFS,soluble
10,MGSDKIHHHHHHMKWNWQQPDWPDFRWNSEALAVHEARFLQQSGIMIGVVKHLGDEDRTSVVLDVMTDEAMKTSQIEGELLNRDSVQSSLRREFGLETEARRIPPAERGIAEMMMALFRDFAAPLTEEVLGDWHRLVLSGRSDIDVVGRYREHEDAMQVVSGALHKPTVHFEAPPSREMAAEMARFLEWFAATGPGGATPLPGLTRSGLAHLYFVTIHPFEDGNGRIGRAIAEKALSQAIGQPSLIALSQTIQRRRSAYYDALEAANKSNEISDWLAYWAETVLDAQTHSLALIDFLLEKTRFHDRYRGKLNPRQEKVIARMFREGLDGFKGGLSAANYITIADTSRATATRDLQELVALGAMGQTGTLKATRYHLILDAVAGTNPPVNQA,not soluble
11,MSLKAIVYKGPKMLEVVEIDKPIPKEGQVLVKVNRAGICGGDLGIYKGTHPRAKAPLVFGHEFSGVVEEDGKIFKKGTKVTVNPIYSCGDCVPCNSGDQHVCNTLRLVGIDRDGAMSEYVVVDENKLYELGDEMSDELGALIEPIAVAVHSVREPGYKPGDNAVVFGGGPIGLAIAFVLKKFGCTNLTIIEADDKRIAMGKDFGFDLRDAKGLDLEALKAEKTGGNGFDFVFDCAGVEPVAAQLIKASKVRGKIVIVAGYKTPTMFPVNEGMFKEVAFEFVRVYRDKDYEIAVELAKDEPMFEKLVTHVLPVEQAQEGFDLLLTPGTGAMKVLFKEGHHHHHH,not soluble
12,MLKPKEINTENKSKKRIYLSSPHMSDEGYEKQYINEAFETNWIAPLGKNVDEFEKELAAKVGIKAAAALSSGTAAIHMALKAAGVGEGDIVFCPTLTFAATANPIIYQNAIPVFIDSDYETWNMSPEALEEAFKKYPKVKAVLVVHLYGLSADMDKIVEICKKHDVQLIEDAAESLGTTYKGRYTGTIGDYGIYSFNGNKIITTSGGGMLVSDNEERIAKVRFWATQARDNARHYQHSELGYNYRMSNVIAGIGRGQLKVLDQRIEKKRYIFDFYKRELGCIDEIDFMPVNDWNKPNCWLTCITLTGKVRPLDVIIRLEEENIESRPVWKPMHMQPFYQHYDYIGSNVSEKIFENGVCLPSDTKMTDEDLYRVVNIIKGLWK,not soluble
13,MSLAHGIPSQGKVTITVDEYSSNPTQAFTHYNINQSRFQPPHVHMVDPIPYDTPKPAGHTRFVCISDTHSRTDGIQMPYGDILLHTGDFTELGLPSEVKKFNDWLGNLPYEYKIVIAGNHELTFDKEFMADLVKQDYYRFPSVSKLKPEDFDNVQSLLTNSIYLQDSEVTVKGFRIYGAPWTPWFNGWGFNLPRGQSLLDKWNLIPEGIDILMTHGPPLGFRDWVPKELQRVGCVELLNTVQRRVRPKLHVFGGIHEGYGIMTDGYTTYINASTCTVSFQPTNPPIIFDLPNPQGSEGHHHHHH,soluble
14,MHCPFCFAVDTKVIDSRLVGEGSSVRRRRQCLVCNERFTTFEVAELVMPRVVKSNDVREPFNEEKLRSGMLRALEKRPVSSDDVEMAINHIKSQLRATGEREVPSKMIGNLVMEQLKKLDKVAYIRFASVYRSFEDIKEFGEEIARLED,soluble
15,MGSDKIHHHHHHMKDGQMLTEWPSHLPWLNQSQNDFTFPSDTYLLLYFWSMSCPNCHQFTDKVLQDIKDMNVKVIGVHVPYIEEEKSMEVVLTYALDRGLAIPIVLDQNYEIVTTCHVQGIPSFCLLSQYGQIITKTMGDVSWDKMLKKIAGL,not soluble
16,GAMDISPTNHHEMLQNLQTVVNELYREDVDYVADKILTRQTVMQESIARFHEIIAIDKNHLRAVEQAIEQTMHSLNAQIDVLTANRAKVQQFSSTSHVDDEDVNSIAVAKTDGLNQLYNLVAQDYALTDTIECLSRMLHRGTIPLDTFVKQGRELARQQFLVRWHIQRITSPLS,soluble
17,RMALDEVWDSSHFALQPGRAEDGPGASLALRILAARLPDSGVYVCHARNAHGHAQAGALLQVHQPPESPPADPDEAPAPVVEPLKCAPKTFWVNEGKHAKFRCYVMGKPEPEIEWHWEGRPLLPDRRRLMYRDRDGGFVLKVLYCQAKDRGLYVCAARNSAGQTLSAVQLHVKEPRLRFTRPLQDVEGREHGIAVLECKVPNSRIPTAWFREDQRLLPCRKYEQIEEGTVRRLIIHRLKADDDGIYLCEMRGRVRTVANVTVKGPILKRLPRKLDVLEGENAVLLVETLEAGVEGRWSRDGEELPVICQSSSGHMHALVLPGVTREDAGEVTFSLGNSRTTTLLRVKCVKHSPPGPPILAEMFKGHKNTVLLTWKPPEPAPETPFIYRLERQEVGSEDWIQCFSIEKAGAVEVPGDCVPSEGDYRFRICTVSGHGRSPHVVFHGSAHLVPTARLVAGLEDVQVYDGEDAVFSLDLSTIIQGTWFLNGEELKSNEPEGQVEPGALRYRIEQKGLQHRLILHAVKHQDSGALVGFSCPGVQDSAALTIQESPVHILSPQDKVSLTFTTSERVVLTCELSRVDFPATWYKDGQKVEESELLVVKMDGRKHRLILPEAKVQDSGEFECRTEGVSAFFGVTVQDPPVHIVDPREHVFVHAITSECVMLACEVDREDAPVRWYKDGQEVEESDFVVLENEGPHRRLVLPATQPSDGGEFQCVAGDECAYFTVTITDVSSWIVYPSGKVYVAAVRLERVVLTCELCRPWAEVRWTKDGEEVVESPALLLQKEDTVRRLVLPAVQLEDSGEYLCEIDDESASFTVTVTEPPVRIIYPRDEVTLIAVTLECVVLMCELSREDAPVRWYKDGLEVEESEALVLERDGPRCRLVLPAAQPEDGGEFVCDAGDDSAFFTVTVTEPPVQFLALETTPSPLCVAPGEPVVLSCELSRAGAPVVWSHNGRPVQEGEGLELHAEGPRRVLCIQAAGPAHAGLYTCQSGAAPGAPSLSFTVQVAEPPVRVVAPEAAQTRVRSTPGGDLELVVHLSGPGGPVRWYKDGERLASQGRVQLEQAGARQVLRVQGARSGDAGEYLCDAPQDSRIFLVSVEEPLLVKLVSDLTPLTVHEGDDATFRCEVSPPDADVTWLRNGAVVTPGPQRQSCCSYGGCRMCGQRKARTCVSKWRQAEWVQRGPCAGCEVGSPCPTTLACPWPRMGTSTASSSMVSYWPTRAPTAARATTIAPWPGSA,soluble
18,WVQPITAQKPSLTLWLDDKMFTGLINTGADVTIIKLEDWPPNWPITDTLTNLRGIGQSNNPKQSSKYLTWRDKENNSGLIKPFVIPNLPVNLWGRDLLSQMKIMMAS,soluble
19,MQANGVWSLQPLADMSAAEFRDWQVLLENRTGVVLNEQRRTFLQASLTARMRELGIGDYHSYYRQVTDGPRGAVEWATLLDRLTVQETRFFRHPPSFELLERYLGERLRREGMPRPWALWSVGCSSGEEPYSLAMCAAQVLRGQEREDFFGVTGTDISLHALQRARQANYPARKLEQLEAGLVERYCERQADGSFSVKTILTERVCCARLNVLDLAKAPWSGMDVIFCQNLLIYFRRWRRREILNRLAERLAPGGLLVIGVGEVVDWSHPELEPVADERVLAFTR,not soluble
20,MNPTVLVAEDDPVQRLLLRRALEPLGVEVRLARHGREALDLALEAPPHLVLTDLHMPHMDGLELTRRLKALDPLLPVLLFTADRDHETRLRGLEAGADDFLNRPFDLTELRLRVKGHLERRRLQEKLEDLERALLALVRAVEAKDPYTAGHAERVARYALLGARELGAGEEELRDLHMGALLHDVGKIGLPDRILRGEAPLSAADWRLIQAHPVKGDEILTPLKAHPRLRPYVRWHHEKLDGSGYPDGLTEIPLLVQVLSAADMYDALTSRRTYREAVKPEEALEALEREAREGRLALEAVRALRSGLRRGASEAKGHVLHL,soluble
